Paper PMC7602980

What was measured:
[1] = biological target: Cx43CT CT (Rattus norvegicus) (UniProt P08050); settings: cited from earlier work
Cx43CT_(236-382) (rat) = Cx43CT_(236-382) (rat) (UniProt P08050)

Sequence of Drebrin (Q16643 2-649): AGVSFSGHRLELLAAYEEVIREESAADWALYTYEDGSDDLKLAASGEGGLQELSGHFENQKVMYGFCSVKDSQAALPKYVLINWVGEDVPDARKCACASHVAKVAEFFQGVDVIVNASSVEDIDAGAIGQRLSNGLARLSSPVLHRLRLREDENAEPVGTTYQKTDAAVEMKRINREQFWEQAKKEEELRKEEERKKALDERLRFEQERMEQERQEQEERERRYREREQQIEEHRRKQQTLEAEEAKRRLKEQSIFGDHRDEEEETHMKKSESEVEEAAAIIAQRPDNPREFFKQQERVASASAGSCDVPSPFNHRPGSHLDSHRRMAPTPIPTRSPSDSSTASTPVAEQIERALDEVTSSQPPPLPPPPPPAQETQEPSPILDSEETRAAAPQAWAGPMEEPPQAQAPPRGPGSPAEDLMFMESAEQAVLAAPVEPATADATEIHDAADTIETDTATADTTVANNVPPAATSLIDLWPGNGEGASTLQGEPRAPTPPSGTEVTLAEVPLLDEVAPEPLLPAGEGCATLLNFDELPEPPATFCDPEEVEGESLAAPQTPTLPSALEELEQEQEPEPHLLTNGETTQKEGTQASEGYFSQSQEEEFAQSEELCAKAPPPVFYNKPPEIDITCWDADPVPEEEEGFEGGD

In the case of Drebrin (from UniProt Q16643), the Kd [1] is listed as 300 µM.
“calmodulin (from UniProt P0DP23 1-149) (natural protein)” gave an inhibition of ERK2 phosphorylation of GST-Cx43CT (236-382) (in vitro kinase assay, Western blot with Cx43 pS279/S282 antibodies) in presence of CaM (~90% saturation) (Cx43CT_(236-382) (rat)) of 30% and an inhibition of Src phosphorylation of GST-Cx43CT (236-382) (in vitro kinase assay, Western blot with Cx43 pY265 antibody) in presence of CaM (~90% saturation) (Cx43CT_(236-382) (rat)) of 90%.
